Experimental data from paper PMC5741291 (2017).

Biological target: Actin (F-actin, skeletal muscle) (Oryctolagus cuniculus, UniProt P68135)
Assay: stopped-flow light scattering

B1: Myosin IIIA motor domain (p-huM3AMD) 311-1058 (protein)
chain: MGGTEKARRERIHTKKGNFNRPLISNLKDVDDLATLEILDENTVSEQLEKCYSRDQIYVYVGDILIALNPFQSLGLYSTKHSKLYIGSKRTASPPHIFAMADLGYQSMITYNSDQCIVISGESGAGKTENAHLLVQQLTVLGKANNRTLQEKILQVNNLVEAFGNACTIINDNSSRFGKYLEMKFTSSGAVVGAQISEYLLEKSRVIHQAIGEKNFHIFYYIYAGLAEKKKLAHYKLPENKPPRYLQNDHLRTVQDIMNNSFYKSQYELIEQCFKVIGFTMEQLGSIYSILAAILNVGNIEFSSVATEHQIDKSHISNHTALENCASLLCIRADELQEALTSHCVVTRGETIIRPNTVEKATDVRDAMAKTLYGRLFSWIVNCINSLLKHDSSPSGNGDELSIGILDIFGFENFKKNSFEQLCINIANEQIQYYYNQHVFAWEQNEYLNEDVDARVIEYEDNWPLLDMFLQKPMGLLSLLDEESRFPKATDQTLVEKFEGNLKSQYFWRPKRMELSFGIHHYAGKVLYNASGFLAKNRDTLPTDIVLLLRSSDNSVIRQLVNHPLTKTGNLPHSKTKNVINYQMRTSEKLINLAKGDTGEATRHARETTNMKTQTVASYFRYSLMDLLSKMVVGQPHFVRCIKPNSERQARKYDKEKVLLQLRYTGILETARIRRLGFSHRILFANFIKRYYLLCYKSSEEPRMSPDTCATILEKAGLDNWALGKTKVFLKYYHVEQLNLMRKEAIDK
modifications: phosphorylated by myosin IIIA kinase domain, MgADP
Q: Which Kd does the source give for B1 here?
A: 1070 nM
